Results on one substance are retold here after patent US20200360437A1.

This experiment concerns the target NKG2D ligand MIC-A and MIC-B molecules on tumor cells. Nature of the experiment: cell-based or functional assay.

Turning to “fusion protein NKG2D-CD8αhinge-CD8TM-4-1BB-CD3ζ (chimeric antigen receptor expressed on NK-92 cells)”, the specific lysis activity (CCK-8), A549 cells, effector:target 0.5:1 stood at 21%; the specific lysis activity (CCK-8), A549 cells, effector:target 1:1 was 30%; the specific lysis activity (CCK-8), H1299 cells, effector:target 0.5:1 worked out at 39%; the specific lysis activity (CCK-8), H1299 cells, effector:target 1:1 turned out to be 80%. The same substance yielded a specific lysis activity (CCK-8), MCF-7 cells, effector:target 0.5:1 of 43%; a specific lysis activity (CCK-8), MCF-7 cells, effector:target 1:1 of 56%; a specific lysis activity (CCK-8), MDMB-231 cells, effector:target 0.5:1 of 7%; a specific lysis activity (CCK-8), MDMB-231 cells, effector:target 1:1 of 14%. In addition, the specific lysis activity (CCK-8), SW-480 cells, effector:target 0.5:1 was 8% and the specific lysis activity (CCK-8), SW-480 cells, effector:target 1:1 stood at 16%.
